From patent publication US12351605B2, “Optically controllable FGFR stimulation using wireless controlled cellular lighting system” (THE JOHNS HOPKINS UNIVERSITY, priority 2020, dated 2025)
Read-outs that look alike come from different tables or passages of the source.

What was measured:
[1] = daily feeding condition, cited from earlier work
[2] = test system: FGF signaling pathway; assay: Western blot of ERK1/2 and MEK phosphorylation in Opto-FGFR hESCs; type: cell-based, human; conditions: 10 ng/mL FGF2 after 24 h FGF2 starvation; 15 min intervals up to 120 min
Method: Western blot analysis. The phosphorylation status of MEK and ERK1/2 were determined by Western blot analysis. The cells were starved from FGF2 protein for 24 h, and then exposed to either FGF2 protein or blue light illumination. One μg aliquots of whole cell lysates were loaded onto 4-20% gradient SDS-PAGE gels and then transferred to nitrocellulose membranes (Bio-Rad) using the Trans-Blot® Turbo™ Transfer System (Bio-Rad). The detection of phosphorylated ERK1/2 proteins (42 and 44 kDa) was performed using a phospho-ERK1/2 antibody (Cell Signaling), total ERK1/2 expression level was determined using a total […] antibody (Cell Signaling), detection of pMEK protein (45 kDa) was performed using a pMEK1/2 antibody (Cell Signaling), and total MEK expression level was determined using a total MEK1/2 antibody (Cell Signaling). The expression levels are quantified by normalizing to GAPDH expression (Cell Signaling). Following the primary antibody incubation, the membranes were incubated with the appropriate secondary antibodies and subsequently visualized with an ECL kit (Pierce).
Generation of a light-inducible FGF signaling system. […]

**Q.** For “FGF2: recombinant fibroblast growth factor 2 protein, medium component for maintaining pluripotency of PSCs”, which “decrease of FGF2 protein concentration” value ([1]; 4 h after the initial feeding) is on record?
**A.** approximately 40%

**Q.** What about the “decrease of FGF2 protein concentration” value ([1]; 24 h after the initial feeding) of the same substance?
**A.** approximately 10%

**Q.** What about the “activation of FGF signaling (phosphorylation of ERK1/2 and MEK)” value [2] of the same substance?
**A.** activated FGF signaling
